Measurements from article PMC12481158.

Biological target: CHLOROPLAST UNUSUAL POSITIONING 1 with C-terminal GFP (CHUP1:GFP) (N. benthamiana)
Experiment: FRET or BRET; nonfitting FLIM-FRET (average-arrival-time FRET) in planta; CHUP1:GFP donor, KAC1:RFP acceptor; mean weighted photon arrival time on chloroplasts juxtaposed to the PM

decrease in donor lifetime against CHUP1:GFP alone: 143 ps | donor (CHUP1:GFP) fluorescence lifetime with KAC1:RFP: 2.27 ns
Substance: KINESIN-LIKE PROTEIN FOR ACTIN-BASED CHLOROPLAST MOVEMENT 1 with C-terminal RFP (KAC1:RFP) (natural protein)
